According to publication PMC6379680, “The Leishmania PABP1–eIF4E4 interface: a novel 5′–3′ interaction architecture for trans-spliced mRNAs” (Nucleic Acids Research, 2018):
Numbering of substitutions follows the chain as printed. Numbers in names are those of the source. Ends that are not written are not given here.

Legend:
[1] = target: full-length Leishmania eIF4G3 (Leishmania major) (UniProt Q4QEK5); assay: fluorescence polarisation; fluorescence anisotropy, PTI QuantaMaster; Alexa-647-labelled eIF4G3, eIF4E4(v)::PABP1(J) added
[2] = target: eIF4E4(iv), an approximately 5 kDa region of the extended N-terminal domain of Leishmania major eIF4E4 (Leishmania major); assay: MST; labelled eIF4E4(iv) held constant, non-labelled PABP1 section varied (16 tubes); Nanotemper Monolith NT.115
[3] = target: eIF4G (Saccharomyces cerevisiae) (UniProt P39935); conditions: cited from earlier work
Sequence of eIF4G (Saccharomyces cerevisiae) (P39935 whole entry): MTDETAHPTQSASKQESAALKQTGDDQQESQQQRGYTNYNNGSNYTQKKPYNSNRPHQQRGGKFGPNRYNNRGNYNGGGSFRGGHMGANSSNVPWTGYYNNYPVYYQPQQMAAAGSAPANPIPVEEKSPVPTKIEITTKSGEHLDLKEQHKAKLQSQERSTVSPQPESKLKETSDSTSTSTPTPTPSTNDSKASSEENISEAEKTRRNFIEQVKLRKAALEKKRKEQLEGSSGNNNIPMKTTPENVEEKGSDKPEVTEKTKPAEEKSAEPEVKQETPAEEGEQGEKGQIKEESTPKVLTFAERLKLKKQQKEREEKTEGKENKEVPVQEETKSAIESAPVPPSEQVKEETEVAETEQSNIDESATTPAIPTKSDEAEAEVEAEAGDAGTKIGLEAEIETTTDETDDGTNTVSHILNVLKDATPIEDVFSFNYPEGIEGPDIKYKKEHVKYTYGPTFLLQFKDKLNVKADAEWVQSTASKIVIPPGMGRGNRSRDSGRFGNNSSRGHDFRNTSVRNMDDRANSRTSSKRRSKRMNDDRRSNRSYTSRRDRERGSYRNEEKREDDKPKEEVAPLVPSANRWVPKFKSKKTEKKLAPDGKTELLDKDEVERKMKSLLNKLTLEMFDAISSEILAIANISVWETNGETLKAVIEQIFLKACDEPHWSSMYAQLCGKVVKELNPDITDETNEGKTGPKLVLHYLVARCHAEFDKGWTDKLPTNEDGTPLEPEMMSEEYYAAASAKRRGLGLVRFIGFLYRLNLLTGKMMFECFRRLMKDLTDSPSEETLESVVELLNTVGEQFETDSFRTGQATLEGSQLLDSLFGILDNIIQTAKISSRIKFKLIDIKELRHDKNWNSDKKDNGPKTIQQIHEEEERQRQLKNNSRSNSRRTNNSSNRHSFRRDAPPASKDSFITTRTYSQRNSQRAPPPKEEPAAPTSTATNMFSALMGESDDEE

[4] = target: Leishmania major eIF4E4 segment (iv) (Leishmania major); assay: SPR; eIF4E4(iv) immobilised by amine coupling on a Biacore CM5 chip, PABP1(J) passed over, Biacore T200; homogeneous 1:1 binding model
[5] = target: T1, PABP1(J), the PABC domain of Leishmania major PABP1 prepared as segment J (Leishmania major, UniProt E9AFX7 482-560); assay: MST; FITC-labelled synthetic 14mer peptides with PABP1(J); conditions: both partners purified
T1 construct: 15N,13C-labelled form used in NMR; also called PABP1 PABC domain; PABC1; source: E. coli NiCo21(DE3), synthetic reading frame, purified (cobalt IDA resin, gel filtration); also co-expressed with eIF4E4(v) from a dual expression plasmid
T1 sequence: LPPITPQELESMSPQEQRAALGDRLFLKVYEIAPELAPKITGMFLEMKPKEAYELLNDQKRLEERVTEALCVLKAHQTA

[6] = target: T1, PABP1(J), the PABC domain of Leishmania …; assay: MST; labelled eIF4E4(iv) held constant, non-labelled PABP1 section varied (16 tubes); Nanotemper Monolith NT.115; conditions: both partners purified
eIF4E4(iv) = assay: Microscale thermophoresis of mutated PABP1(J) F525A with eIF4E4(iv); assay type: binding, Leishmania major
Experimental: Microscale thermophoresis experiments were performed using eIF4E4(iv) or eIF4G3 labelled with a fluorescent tag (Monolith Protein Labeling Kit Red-Maleimide), or the eIF4G3 peptide […] labeled with fluorescein-5-isothiocyanate. The concentration of the fluorescently labelled protein (eIF4E4(iv)) was held constant, while the concentration of non-labelled ligand protein was varied. The experiment was conducted by preparing 16 tubes with various ratios of the interacting labelled/non-labelled proteins. The solutions were introduced into capillaries, which were then loaded into a Nanotemper Monolith NT.115 instrument for measurement. […] In order to maximise confidence in the calculated dissociation constant values (based on kON and kOFF values), two types of model were fitted to the raw data: a homogeneous 1:1 binding model, and a heterogeneous 1:1 two-ligand model. […] Fluorescence anisotropy measurements were performed using a PTI QuantaMaster fluorimeter. […]
We wanted to establish a quantitative understanding of the relative significance of interactions between the Leishmania cap-binding complex factors eIF4E4, eIF4G3 and PABP1 using protein domains or full-length proteins, rather than peptides. […]

PABP1 = assay: Microscale thermophoresis, Alexa-647-labelled eIF4G3 with PABP1; assay type: binding, Leishmania; conditions: Alexa-647-labelled eIF4G3 and PABP1
Experimental: (§1) Microscale thermophoresis experiments were performed using eIF4E4(iv) or eIF4G3 labelled with a fluorescent tag (Monolith Protein Labeling Kit Red-Maleimide), or the eIF4G3 peptide […] labeled with fluorescein-5-isothiocyanate. The concentration of the fluorescently labelled protein (eIF4E4(iv)) was held constant, while the concentration of non-labelled ligand protein was varied. The experiment was conducted by preparing 16 tubes with various ratios of the interacting labelled/non-labelled proteins. The solutions were introduced into capillaries, which were then loaded into a Nanotemper Monolith NT.115 instrument for measurement. For the SPR experiments, eIF4E4(iv) was immobilized via amine coupling to a Biacore CM5 sensor chip (GE Healthcare Life Sciences) and titrations against PABP1(J) were performed in a Biacore T200 instrument. In order to maximise confidence in the calculated dissociation constant values (based on kON and kOFF values), two types of model were fitted to the raw data: a homogeneous 1:1 binding model, and a heterogeneous 1:1 two-ligand model. […] Fluorescence anisotropy measurements were performed using a PTI QuantaMaster fluorimeter. […]
(§2) Figure 5. Quantitative characterization of interactions of Leishmania cap-complex proteins. […] Fluorescence anisotropy measurements (C) detected binding of Alexa-647-labelled eIF4G3 to the complex eIF4E4(v):PABP1(J). […]

eIF4E4(v):PABP1(J) = assay: Fluorescence anisotropy, Alexa-647-labelled eIF4G3 binding to the complex eIF4E4(v):PABP1(J); design: species or system Leishmania; conditions: Alexa-647-labelled eIF4G3, eIF4E4(v)::PABP1(J) added, read-out: KD (average of calculated KD values)
Experimental: as §1, §2

Q: Which Kd [1] does the source give for “heterodimeric complex eIF4E4(v):PABP1(J) (from UniProt E9AFX7 482-560)” here?
A: Its Kd is 340 nM.

Q: With “PABP1(J) F525A (from UniProt E9AFX7) (domain or fragment)” as the molecule, how does the Kd [2] read?
A: Its Kd is 550 nM.

Q: Which Kd [3] does the source give for eIF4E (from UniProt P07260) here?
A: Its Kd is 2.3 nM.

B1: Leishmania major PABP1 segment J (PABC domain) (domain or fragment)
chain: T1 sequence
modifications: here or on the partner: 13C,15N-labelled in the NMR experiment
Q: With B1 as the molecule, how does the Kd [4] read?
A: The Kd was 160 nM.

B2: eIF4E4 PAM2-motif FITC-labelled 14mer peptide, M148A (peptide)
peptide: HHMNPNATEFAPGR
modifications: also: FITC label
notes: source: synthetic peptide (Thermo Fisher Scientific, HPLC-purified to 98%)
Q: With B2 as the molecule, how does the Kd [5] read?
A: The Kd was 62.8 ± 3.1 nM.

B3: eIF4E4(iv), an approximately 5 kDa region of the extended N-terminal domain of Leishmania major eIF4E4 (domain or fragment)
chain: PTRFSPATVPRHHMNPNATEFMPGRRNGPDGGLEALPTSTAD
modifications: also: Alexa 647 label (Red-Maleimide) for MST
Q: For B3, which Kd [6] is on record?
A: Its Kd is 22 nM.

B4: eIF4E4 PAM2-motif FITC-labelled 14mer peptide, WT (peptide)
peptide: HHMNPNATEFMPGR
modifications: also: FITC label
notes: also called 'wild-type' peptide; 14mer eIF4E4 peptide; source: synthetic peptide (Thermo Fisher Scientific, HPLC-purified to 98%)
Q: For B4, which Kd [5] is on record?
A: Its Kd is 33 ± 0.9 nM.

B5: eIF4E4 PAM2-motif FITC-labelled 14mer peptide, M140A (peptide)
peptide: HHANPNATEFMPGR
modifications: also: FITC label
notes: as for B2
Q: Which Kd [5] does the source give for B5 here?
A: The Kd was 34.3 ± 1.3 nM.

B6: eIF4E4 PAM2-motif FITC-labelled 14mer peptide, N143A (peptide)
peptide: HHMNPAATEFMPGR
modifications: also: FITC label
notes: as for B2
Q: Which Kd [5] does the source give for B6 here?
A: Its Kd is 69.2 ± 4.9 nM.

B7: eIF4E4 PAM2-motif FITC-labelled 14mer peptide, E146A (peptide)
peptide: HHMNPNATAFMPGR
modifications: also: FITC label
notes: as for B2
Q: For B7, which Kd [5] is on record?
A: The Kd was 163 ± 16.4 nM.

B8: eIF4E4 PAM2-motif FITC-labelled 14mer peptide, F147A (peptide)
peptide: HHMNPNATEAMPGR
modifications: also: FITC label
notes: also called F147A mutant peptide; source: synthetic peptide (Thermo Fisher Scientific, HPLC-purified to 98%)
Q: Which Kd [5] does the source give for B8 here?
A: The Kd was 127 ± 13.4 nM.

B9: PABP1(J) F525A: PABC domain of Leishmania PABP1 (segment J) with phenylalanine 525 mutated to alanine (protein)
chain: T1 sequence with F44A
Q: What does the source list for B9?
A: Kd (eIF4E4(iv); eIF4E4(iv) + PABP1(J) F525A, average of three independent titrations): 550 nM; KD relative to the non-mutated PABP1(J) value (eIF4E4(iv); ratio of KD values): 25 times

B10: eIF4G3: full-length Leishmania eIF4G3, Alexa-647-labelled (protein)
chain: MQFTVEQIRSVRNNYLEPPYPGFSLDEVVRRRRLTQTKLVRGENAWVAKGTAQTTEEWVQRLLHGTLNKLTEENKDIMIDKLLTKELFATEDIMNMVVNIIFKKALDEPENSKLYAGVCHSLALYEAKVLRDGHKGERPQSQLRDAIISTAQHEFRTLSKELSKMEDKSEEELEYERSNVMRRKRSNMRFIGELYLCTALTHSTMFTVMDLTMRCSDKTGFPSSENIELLAALLNTIGDRLDKNHKKTLDPYFTSLENFNKKSDCPYPPRIRFKIMDLLDLRKRGWGLKPKPVKAALPPSHGKDKKYATAPPPKKGGRDQGSAAAASKSWRDAATTKTGTAAAPAPSADKGLNGRGTSSAAPAANTAALSSSAASTAAATAPAGASFRDEASPQVPLVKFELRVASMFQEWVADRTNDVILHWVDQFNTCDRFFESESELCVAVAQEVIHSACTTTRKDAQREAFSFLVVGLYMIDTEVFDGFASALASAIEDGLLEDVPKFGERFMSMLRLTSTEQETRADVYFDAANVLRLTYNRLESPDDSAVDTLMSFWDRVPLPSTDEENMIRMDLDVVYSLCNPEGVQDGLEKLLSRIIHSMLQMQLMDAEVLDEFLCLDVEDGLCAKVIADYKERFPK
modifications: Alexa 647 label (Monolith Protein Labeling Kit Red-Maleimide) in the fluorescence anisotropy and MST experiments; left off: His12, end not stated, kept
notes: full-length Leishmania eIF4G3, Alexa-647-labelled
Q: Which “binding” value (PABP1) does the source give for B10 here?
A: The value was “no binding could be detected”.

Q: And the Kd (eIF4E4(v):PABP1(J))?
A: The Kd was 340 nM.
